Source: patent publication US20220403048A1, “BINDING MOLECULES TO ARGINASE II [ARG2]” (Cancer Research Technology Limited, priority 2019, published 2022)
Values belong to the molecule of their own block, whether it stands above or below them.

Tests used:
[1] = system: recombinant cynomolgus monkey trimeric ARG2 enzyme; test: Direct binding HTRF assay, cynomolgus trimeric ARG2; settings: purified scFv, FIG. 1C
ARG2 = molecular target: T1, ARG2 (Homo sapiens, UniProt P78540); test: Isothermal titration calorimetry of BEC with ARG2 and ARG2-C0021158 fab complex; type: binding; design: human ARG2 (aa23-354); His10 (C); made in house; host or cells: E. coli BL21 (DE3); settings: 20 μM ARG2 and 20 μM C0021158 fab, 0.50 mM BEC titrated, 25° C.
T1 sequence (P78540 23-354): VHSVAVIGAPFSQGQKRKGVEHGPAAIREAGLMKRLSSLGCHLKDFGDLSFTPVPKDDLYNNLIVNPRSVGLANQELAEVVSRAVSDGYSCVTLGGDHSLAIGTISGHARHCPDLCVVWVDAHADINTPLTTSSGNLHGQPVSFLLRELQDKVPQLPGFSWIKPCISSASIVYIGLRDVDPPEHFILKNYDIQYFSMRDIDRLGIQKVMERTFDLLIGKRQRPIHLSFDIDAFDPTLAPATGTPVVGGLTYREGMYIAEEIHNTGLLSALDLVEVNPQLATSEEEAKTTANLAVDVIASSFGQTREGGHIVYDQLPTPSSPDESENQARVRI
Method: To assess the accessibility of the ARG2 active site, we analysed binding of the ARG2 small-molecule inhibitor S-(2-Boronoethyl)-L-cysteine hydrochloride (BEC) by isothermal titration calorimetry (ITC) using a VP ITC (MicroCal) set to 25° C. (FIG. 15B). BEC is an arginine analogue that binds to the active site of ARG2. First, volumes of 10 μl of a solution containing 0.75 mM BEC were added to 20 μM of ARG2 (monomer concentration). The resulting thermogram was integrated using NITPIC and the binding isotherm was fitted with SEDPHAT using a one-binding site model. In a second experiment, volumes of 10 μl of 0.50 mM BEC were added to a solution containing a pre-incubated 1:1 molar mixture of C0021158 fab and ARG2 (both 20 μM, incubation 1 h at 20° C.).

human ARG2 = molecular target: T2, human ARG2 (Homo sapiens, UniProt P78540); test: X-ray co-crystal structures of ARG2-Fab complexes, buried surface area of epitope residues; settings: total of interface residues
T2 construct: made in house
T2 sequence (P78540 with tags, fused parts or gaps): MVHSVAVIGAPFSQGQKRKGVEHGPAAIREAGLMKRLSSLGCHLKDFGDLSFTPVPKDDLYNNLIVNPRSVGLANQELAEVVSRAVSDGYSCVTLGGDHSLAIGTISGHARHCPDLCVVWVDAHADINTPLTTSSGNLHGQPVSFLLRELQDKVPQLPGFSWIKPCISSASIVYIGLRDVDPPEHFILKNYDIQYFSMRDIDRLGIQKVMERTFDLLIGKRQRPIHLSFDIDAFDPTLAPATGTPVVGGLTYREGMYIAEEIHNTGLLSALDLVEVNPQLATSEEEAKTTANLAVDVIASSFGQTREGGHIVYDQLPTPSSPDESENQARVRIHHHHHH
Method: The construct used for crystal trials was ARG2 (23-354) containing a C-terminal Gly3 linker and His10-tag (ARG2+C0020187, SEQ ID NO: 355: huARG2-His10) or a simple C-terminal His6-tag (ARG2+C0021181 and ARG2+C0021158, SEQ ID NO: 357: huARG2-His6). Crystals suitable for structure determination were obtained using the sitting drop methodology. For ARG2+C0020187, 0.2 μl of complex solution (2.0 mg/ml, ARG2:Fab=3:1, purified by gel filtration) were mixed with 0.1 μl of crystallisation solution containing 2 M (NH4)2SO4. Round, disc-shaped crystals (60×60×20 μm) appeared after 2 days. For ARG2+C0021181, 0.5 μl of complex solution (6.3 mg/ml) were mixed with 0.5 μl of a crystallisation solution containing 100 mM MMT (malic acid:MES:tris=1:2:2) pH 5.0, 20% glycerol, 10% PEG4000, 15 mM NaNO3, 15 mM Na2HPO4, 15 mM (NH4)2SO4. Hexagonal disc-shaped crystals (100×100×20 μm) appeared after 2 days and reached their final size after a week. For ARG2+C0021158, 0.25 μl of complex solution (7.0 mg/ml, containing 20% diluted microseeds of an ARG2+C0021181 crystal) were mixed with 0.25 μl of a crystallisation solution containing 2 M (NH4)2SO4. Crystals of irregular shape (60×60×60 μm) appeared after 2 days. For the ARG2+C0020187 and ARG2+C0021158 crystals, 3 M (NH4)2SO4 and 5% glycerol were added for cryo-protection, after which the crystals were cryo-cooled by plunging them into liquid N2. Data sets were collected at DLS, beamline i04-1 (ARG2+C0020187) or BESSY II, HZB, beamline MX-14-1 (ARG2+C0021181 and ARG2+C0021158). The crystals of ARG2+C0020187 diffracted up to 3.25 Å in space group P 65 2 2 with unit cell parameters a=b=138 Å, c=551 Å.
The structures were solved by molecular replacement using Phaser in the CCP4 program suite using the reported structure of ARG2 (PDB-ID 4HZE) and previously solved high-resolution structures of the individual Fabs in the molecular replacement search. For ARG2+C0020187 the asymmetric unit contained three copies each of ARG2 and the Fab, respectively, with the CL and CH domains being present in different orientations, one of pair which was poorly defined in the electron density. For ARG2+C0021181 and ARG2+C0021158 the asymmetric units contained one copy of ARG2 and one copy of the Fab, however for ARG2+C0021181 only the VL and VH domains of the Fab were well defined, with CL and CH domains most likely being present in two orientations (reflected by the increased B factor and overall worse electron density). Automated and manual refinement was then performed by alternating between using REFMAC5 (with twin- and TLS refinement turned on towards finalising the structures for ARG2+C0021181 and ARG2+C0021158) and COOT, respectively. […]

Chain of recombinant cynomolgus monkey trimeric ARG2 enzyme (as listed by the source): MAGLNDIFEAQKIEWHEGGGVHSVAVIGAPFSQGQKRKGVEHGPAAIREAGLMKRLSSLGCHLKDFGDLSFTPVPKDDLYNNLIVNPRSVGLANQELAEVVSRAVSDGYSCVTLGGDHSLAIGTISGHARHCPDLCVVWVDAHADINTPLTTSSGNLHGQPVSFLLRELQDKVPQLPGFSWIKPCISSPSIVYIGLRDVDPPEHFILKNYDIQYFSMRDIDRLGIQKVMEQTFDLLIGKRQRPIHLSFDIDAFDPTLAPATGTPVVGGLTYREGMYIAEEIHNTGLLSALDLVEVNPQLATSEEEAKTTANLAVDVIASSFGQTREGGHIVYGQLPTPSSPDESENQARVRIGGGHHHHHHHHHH

B1: C0020065: anti-ARG2 antibody, alternate lead isolation clone, VH SEQ ID NO: 2, VL SEQ ID NO: 7 (antibody, listed as Homo sapiens, V domains shown)
VH: GVNLRESGGGVVQPGRSLRLSCAASGFTFSSYAMHWVRQAPGKGLEWVAVISYDGSNKYYVDSVKGRFTISRDNSKNTLYLQMNSLRAEDTAVYYCARDSSQLWFDYWGRGTLVTVSS
VL: QSVVTQPPSVSGAPGQRVTISCTGSSSNIGTGYDVHWYQQLPGTAPKLLIYGNSNRPSGVPDRFSGSKSGTSASLAITGLQAEDEADYYCQSYDSSLSGSVVFGGGTQLTVL
modifications: C0020065
binding to biotinylated recombinant cynomolgus trimeric ARG2 enzyme [1]: bound

B2: C0021158 IgG: anti-ARG2 antibody, VH SEQ ID NO: 282, VL SEQ ID NO: 287; IgG and Fab versions carry these sequences (antibody, listed as Homo sapiens, V domains shown)
VH: EVQLLESGGGLVQPGGSLRLSCAASGFTFRYEVAAWVRQAPGKGLEWVSAISGPIPKGYYADSVKGRFTISRDNSKNTLYLQMNSLRAEDTAVYYCARLRADLGLYMDLWGRGTLVTVSS
VL: QSVLTQPPSVSAAPGQKVTISCSGSSSNIGNHYVSWYQQLPGTAPKLLIYDNSERTAGVPDRFSGSKSGTSATLGITGLQTGDEADYYCGTWDELTSNLVFGGGTKLTVL
modifications: C0021158 IgG
effect on binding of BEC to ARG2 (ITC) (ARG2): prevents BEC from binding

Results, then the molecule that gave them:

% buried (human ARG2; C0021181 complex): 50%
B3: C0021181: anti-ARG2 antibody, VH SEQ ID NO: 342, VL SEQ ID NO: 347 (antibody, listed as Homo sapiens, V domains shown)
VH: EVQLLESGGGLVRPGGSLRLSCAASEFTFRYDYHVWVRQAPGKGLEWVSAISGSGGSTYYADSVKSRFTISRDNSKNTLYLQMNSLRAEDTAVYYCARLRADLGLYMDLWGRGTLVTVSS
VL: QSVLTQPPSVSAAPGQKVAVSCSGSSSNIGSHYVSWYQQLPGTAPKLLIYDNSERTSGIPDRFSGSKSGTSATLGITGLQTGDEADYYCGTWDELTSNLVFGGGTRLTVL
modifications: C0021181

% buried (human ARG2; C0021158 complex): 50%
ASA (solvent accessible surface area) (human ARG2; C0021158 complex): 2012.6 Å^2
BSA (buried surface area) (human ARG2; C0021158 complex): 1000.3 Å^2
B4: C0021158: anti-ARG2 antibody, second generation lead, VH SEQ ID NO: 272, VL SEQ ID NO: 277 (antibody, listed as Homo sapiens, V domains shown)
VH: EVQLLESGGGLVQPGGSLRLSCAASGFTFRYEVAAWVRQAPGKGLEWVSAISGPIPKGYYADSVKGRFTISRDNSKNTLYLQMNSLRAEDTAVYYCARLRADLGLYMDLWGRGTLVTVPS
VL: QSVLTQPPSVSAAPGQKVTISCSGSSSNIGNHYVSWYQQLPGTAPKLLIYDNSERTAGVPDRFSGSKSGTSATLGITGLQTGDEADYYCGTWDELTSNLVFGGGTKLTVL
modifications: C0021158
